Assay results published in patent US12551583B2, “Radiolabeled ligands for targeted PET/SPECT imaging and methods of their use” (MEMORIAL SLOAN KETTERING CANCER CENTER, priority 2016, dated 2026).

Test system: 4T1 orthotopic tumor-bearing BALB/c mice
Experiment: in vivo
Details: mouse; for biodistribution, Blood / biodistribution, Bone / biodistribution, Brain / biodistribution, Heart / biodistribution, Kidneys / biodistribution, L. intestine / biodistribution, Liver / biodistribution, Lungs / biodistribution, Muscle / biodistribution, Pancreas / biodistribution, S. intestine / biodistribution, Skin / biodistribution, Spleen / biodistribution, Stomach / biodistribution, Tumor (4T1 tumoral uptake): iv, 4 h
Method: 4T1 orthotopic BALB/c mouse model. The cells were removed from the flasks, concentrated, and resuspended in minimal media for cell counting. The cells were then diluted to contain approximately 1 million cells in 30 μL of media (for orthotopic allografts). Following an MSKCC Institutional Animal Care and Use Committee approved protocol, 8-10 week old BALB/c mice (Charles River Laboratories, Wilmington, MA) were surgically implanted with one million 4T1 cancer cells into the first or the last mammary fat pad of the right side of the animal using aseptic surgical techniques and sterile staple closures while the mice were under anesthetic. Additionally, mice were given injections of meloxicam (24 h pain killer) in the scruff and bupivacaine intradermally prior to surgical incisions. One day post surgery, the mice were again given meloxicam and checked to ensure that the closure was healing. Two and three days post surgery, the mice were checked to ensure that the animals were healthy and recovering well from the surgery. Five to seven days post surgery, the staples were removed. Five to nine days post surgery, the mice were injected with 50-75 μCi (0.9-0.4 nmol) of the respective radiopharmaceutical for in vivo biodistribution or 500-600 μCi (9-11 nmol) for in vivo imaging. The mice receiving ^64Cu-NOTA-pHLIP were sacrificed at 1, 2, 4, 12, 24, 36, and 48 h; the mice receiving [^18F]—AlF-NOTA-pHLIP were sacrificed at 0.5, 1, 2, 4, 6 and 8 h. The 4T1 tumors in this study were purposely used 5-9 days after inoculation to ensure lower tumoral pH. Animal models. Animal studies were conducted according to MSKCC IACUC-approved animal protocol. 4T1 (orthotopic breast cancer allografts of 1×10^6 cells surgically implanted in the mammary fat pad) and B16-F10 (orthotopic melanoma allografts of 1×10^5 cells injected intradermally on the shoulder) tumors were orthotopically inoculated in media in female BALB/c and C57Bl/6 mice (Charles River Laboratories (CRL)), respectively. Additionally, PC3 (3×10^6 cells) or LNCaP (3-6×10^6 cells) tumors were subcutaneously xenografted on the shoulder of athymic nude male mice (CRL). Mice were used once tumor volumes were approximately 90-300 mm^3. In vivo animal PET imaging and biodistribution. Mice were injected with radiolabeled NOTA-pHLIP derivatives i.v. (500-700 μCi/mouse for PET or SPECT imaging studies and 25-100 μCi/mouse for biodistribution studies). All injections were less than 200 μL with <10% EtOH in sterile PBS. PET images were obtained with the mice under anesthesia in an Inveon PET-CT or microPET Focus 120 (Siemens) at 0.5-48 h p.i. All images were analyzed using ASIPro VM (Concorde Microsystems). SPECT images were obtained with the mice under anesthesia in a NanoSPECT/CT Plus at 4-24 h p.i. All SPECT images were reconstructed using HiSPECT and analyzed using InVivoScope. Dissections for ex vivo biodistribution were performed on mice after CO2 asphyxiation or cervical dislocation while anesthetized at reported time points. Weight of the syringe prior to injection and after injection was used to determine the mass of injectate. Activity of the syringe prior to injection and after injection was used to determine the percent of injectate administered. The mass injected was corrected by the percent of radioactivity injected. Four to five aliquots (10 μL) were weighed and counted as internal standards for each study. All of the collected organs were counted using an automatic gamma counter (Wizard 3″, PerkinElmer, Waltham, MA). The total injected dose was found as the mass injected dose×fraction radioactivity injected×internal standard average counts/g. The percent injected dose (% ID) was determined as the counts for the tissue×100/total injected dose. The % ID/g was calculated as the % ID/tissue weight. The average and standard deviation of the % ID and % ID/g was determined using normal methods (n−1) for each set of mice.

Row | SMILES | kidneys-to-large intestine ratio | biodistribution, Blood [% ID/g] | biodistribution, Bone [% ID/g] | biodistribution, Brain [% ID/g] | biodistribution, Heart [% ID/g] | biodistribution, Kidneys [% ID/g] | biodistribution, L. intestine [% ID/g] | biodistribution, Liver [% ID/g] | biodistribution, Lungs [% ID/g] | biodistribution, Muscle [% ID/g] | biodistribution, Pancreas [% ID/g] | biodistribution, S. intestine [% ID/g] | biodistribution, Skin [% ID/g] | biodistribution, Spleen [% ID/g] | biodistribution, Stomach [% ID/g] | biodistribution, Tumor (4T1 tumoral uptake) [% ID/g]
1 | CC(C)C[C@@H](NC(=O)[C@@H](CC(C)C)NC(=O)[C@@H](CC(=O)O)NC(=O)[C@@H](CC(C)C)NC(=O)[C@@H](CC(C)C)NC(=O)[C@@H](CC(C)C)NC(=O)[C@H](NC(=O)[C@@H](CC(=O)O)NC(=O)[C@H](NC(=O)[C@H]1CCCN1C(=O)[C@@H](Cc1ccccc1)NC(=O)[C@@H](CC(C)C)NC(=O)[C@@H](CC(C)C)NC(=O)[C@@H](CC(=O)O)NC(=O)[C@@H](CC(C)C)NC(=O)[C@@H](Cc1ccc(O)cc1)NC(=O)[C@@H](C)NC(=O)[C@@H](CCCNC(=N)N)NC(=O)[C@@H](Cc1c[nH]c2ccccc12)NC(=O)[C@H]1CCCN1C(=O)[C@@H](CC(N)=O)NC(=O)[C@@H](CCC(N)=O)NC(=O)[C@@H](CC(=O)O)NC(=O)[C@@H](CC(=O)O)NC(=O)[C@@H](CS)NC(=O)[C@@H](C)NC(=S)Nc1ccc(CC2CN(CC(=O)O)CCN(CC(=O)O)CCN2CC(=O)O)cc1)[C@H](C)O)[C@H](C)O)C(=O)N[C@H](Cc1c[nH]c2ccccc12)C(=O)O (single isomer, unassigned) [[^18F]—AlF-NOTA-Var3] | 0.52±0.15 | 2.201 ± 0.374 | 0.540 ± 0.119 | 0.107 ± 0.023 | 0.78 ± 0.08 | 8.237 ± 1.106 | 22.05 ± 2.46 | 0.923 ± 0.153 | 2.217 ± 0.380 | 0.282 ± 0.055 | 0.332 ± 0.020 | 0.927 ± 0.152 | 1.126 ± 0.115 | 0.469 ± 0.093 | 0.482 ± 0.223 | 0.923 ± 0.119
2 | CC(C)C[C@@H](NC(=O)[C@@H](CC(C)C)NC(=O)[C@@H](CC(=O)O)NC(=O)[C@@H](CC(C)C)NC(=O)[C@@H](CC(C)C)NC(=O)[C@@H](CC(C)C)NC(=O)[C@H](NC(=O)[C@@H](CC(=O)O)NC(=O)[C@H](NC(=O)[C@H]1CCCN1C(=O)[C@@H](Cc1ccccc1)NC(=O)[C@@H](CC(C)C)NC(=O)[C@@H](CC(C)C)NC(=O)[C@@H](CC(=O)O)NC(=O)[C@@H](CC(C)C)NC(=O)[C@@H](Cc1ccc(O)cc1)NC(=O)[C@@H](C)NC(=O)[C@@H](CCCNC(=N)N)NC(=O)[C@@H](Cc1c[nH]c2ccccc12)NC(=O)[C@H]1CCCN1C(=O)[C@@H](CC(N)=O)NC(=O)[C@@H](CCC(N)=O)NC(=O)[C@@H](CC(=O)O)NC(=O)[C@@H](CC(=O)O)NC(=O)[C@@H](CS)NC(=O)[C@@H](C)NC(=S)Nc1ccc(CC2CN(CC(=O)O)CCN(CC(=O)O)CCN2CC(=O)O)cc1)[C@H](C)O)[C@H](C)O)C(=O)N[C@H](Cc1c[nH]c2ccccc12)C(=O)O (single isomer, unassigned) [^64Cu-NOTA-Var3, metal not drawn] |  | 1.371 ± 0.244 | 0.339 ± 0.018 | 0.063 ± 0.011 | 0.49 ± 0.05 | 7.165 ± 1.126 | 7.45 ± 2.73 | 1.034 ± 0.150 | 1.420 ± 0.117 | 0.171 ± 0.017 | 0.279 ± 0.041 | 0.320 ± 0.042 | 0.775 ± 0.102 | 0.340 ± 0.032 | 0.194 ± 0.050 | 0.649 ± 0.091
3 | CC(C)C[C@@H](NC(=O)[C@@H](CCC(=O)O)NC(=O)[C@@H](CC(C)C)NC(=O)[C@@H](CC(C)C)NC(=O)[C@@H](CC(C)C)NC(=O)[C@H](NC(=O)[C@@H](CCC(=O)O)NC(=O)[C@H](NC(=O)[C@H]1CCCN1C(=O)[C@@H](Cc1ccccc1)NC(=O)[C@@H](CC(C)C)NC(=O)[C@@H](Cc1c[nH]c2ccccc12)NC(=O)[C@@H](CCC(=O)O)NC(=O)[C@@H](CC(C)C)NC(=O)[C@@H](Cc1ccc(O)cc1)NC(=O)[C@@H](CCCNC(=N)N)NC(=O)[C@@H](C)NC(=O)[C@@H](Cc1c[nH]c2ccccc12)NC(=O)[C@H]1CCCN1C(=O)[C@@H](CC(N)=O)NC(=O)[C@@H](CCC(N)=O)NC(=O)[C@@H](CCC(=O)O)NC(=O)[C@@H](CCC(=O)O)NC(=O)[C@@H](CS)NC(=O)[C@@H](C)NC(=S)Nc1ccc(CC2CN(CC(=O)O)CCN(CC(=O)O)CCN2CC(=O)O)cc1)[C@H](C)O)[C@H](C)O)C(=O)O (single isomer, unassigned) [[^18F]—AlF-NOTA-Var7] | 0.55±0.19 | 2.292 ± 0.277 | 0.571 ± 0.202 | 0.118 ± 0.011 | 0.78 ± 0.06 | 7.759 ± 0.658 | 22.08 ± 6.02 | 1.089 ± 0.066 | 2.325 ± 0.212 | 0.325 ± 0.073 | 0.373 ± 0.051 | 0.776 ± 0.196 | 1.377 ± 0.148 | 0.485 ± 0.029 | 0.593 ± 0.153 | 1.105 ± 0.125
4 | CC(C)C[C@@H](NC(=O)[C@@H](CCC(=O)O)NC(=O)[C@@H](CC(C)C)NC(=O)[C@@H](CC(C)C)NC(=O)[C@@H](CC(C)C)NC(=O)[C@H](NC(=O)[C@@H](CCC(=O)O)NC(=O)[C@H](NC(=O)[C@H]1CCCN1C(=O)[C@@H](Cc1ccccc1)NC(=O)[C@@H](CC(C)C)NC(=O)[C@@H](Cc1c[nH]c2ccccc12)NC(=O)[C@@H](CCC(=O)O)NC(=O)[C@@H](CC(C)C)NC(=O)[C@@H](Cc1ccc(O)cc1)NC(=O)[C@@H](CCCNC(=N)N)NC(=O)[C@@H](C)NC(=O)[C@@H](Cc1c[nH]c2ccccc12)NC(=O)[C@H]1CCCN1C(=O)[C@@H](CC(N)=O)NC(=O)[C@@H](CCC(N)=O)NC(=O)[C@@H](CCC(=O)O)NC(=O)[C@@H](CCC(=O)O)NC(=O)[C@@H](CSC1CC(=O)N(CCNC(=O)CN2CCN(CC(=O)O)CCN(CC(=O)O)CC2)C1=O)NC(=O)[C@@H](C)N)[C@H](C)O)[C@H](C)O)C(=O)O (single isomer, unassigned) [^64Cu-NO2A-cysVar7, metal not drawn] |  | 2.31 ± 0.18 | 1.57 ± 0.18 | 0.25 ± 0.02 | 2.68 ± 0.33 | 95.5 ± 11.9 | 8.19 ± 0.85 | 15.6 ± 1.58 | 4.21 ± 0.23 | 0.64 ± 0.07 | 1.84 ± 0.10 | 6.37 ± 0.11 | 2.59 ± 0.05 | 3.31 ± 0.24 | 3.33 ± 0.31 | 9.07 ± 1.81
